Data taken from patent US20240287172A1 (SCIRHOM, published 2024).

Columns and labels:
[1] = biological target: T1, hiR2-FL-D528I-T7 (human, UniProt Q6PJF5 1-856); assay: FACS, MEF-DKO cells, 3 µg/ml
T1 sequence: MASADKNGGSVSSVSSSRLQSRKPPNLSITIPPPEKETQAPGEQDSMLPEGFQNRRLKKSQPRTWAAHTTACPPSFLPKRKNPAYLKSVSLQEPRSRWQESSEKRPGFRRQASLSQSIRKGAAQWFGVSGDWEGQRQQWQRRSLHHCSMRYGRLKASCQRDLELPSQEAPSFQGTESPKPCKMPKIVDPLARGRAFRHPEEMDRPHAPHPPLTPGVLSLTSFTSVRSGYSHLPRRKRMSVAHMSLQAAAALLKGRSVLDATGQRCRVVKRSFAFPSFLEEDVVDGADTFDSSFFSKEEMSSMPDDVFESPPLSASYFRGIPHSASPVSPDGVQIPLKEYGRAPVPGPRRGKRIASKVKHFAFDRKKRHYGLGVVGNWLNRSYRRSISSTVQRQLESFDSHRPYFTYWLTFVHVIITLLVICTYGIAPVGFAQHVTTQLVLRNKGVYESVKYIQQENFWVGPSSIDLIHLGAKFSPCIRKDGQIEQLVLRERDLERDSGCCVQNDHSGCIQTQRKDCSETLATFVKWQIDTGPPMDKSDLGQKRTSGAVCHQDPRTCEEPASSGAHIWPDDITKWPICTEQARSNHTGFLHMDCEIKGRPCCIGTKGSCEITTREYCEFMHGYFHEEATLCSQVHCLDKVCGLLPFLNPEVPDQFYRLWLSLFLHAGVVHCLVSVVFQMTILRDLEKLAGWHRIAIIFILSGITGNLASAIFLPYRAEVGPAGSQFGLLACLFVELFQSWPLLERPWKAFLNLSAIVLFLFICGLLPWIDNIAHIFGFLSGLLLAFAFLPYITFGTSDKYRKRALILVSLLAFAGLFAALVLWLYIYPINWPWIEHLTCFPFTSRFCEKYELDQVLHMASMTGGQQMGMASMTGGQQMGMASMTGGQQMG

[2] = biological target: T2, hiR2-FL-T522V-T7 (human, UniProt Q6PJF5 1-856); assay: FACS, MEF-DKO cells, 3 µg/ml
T2 sequence: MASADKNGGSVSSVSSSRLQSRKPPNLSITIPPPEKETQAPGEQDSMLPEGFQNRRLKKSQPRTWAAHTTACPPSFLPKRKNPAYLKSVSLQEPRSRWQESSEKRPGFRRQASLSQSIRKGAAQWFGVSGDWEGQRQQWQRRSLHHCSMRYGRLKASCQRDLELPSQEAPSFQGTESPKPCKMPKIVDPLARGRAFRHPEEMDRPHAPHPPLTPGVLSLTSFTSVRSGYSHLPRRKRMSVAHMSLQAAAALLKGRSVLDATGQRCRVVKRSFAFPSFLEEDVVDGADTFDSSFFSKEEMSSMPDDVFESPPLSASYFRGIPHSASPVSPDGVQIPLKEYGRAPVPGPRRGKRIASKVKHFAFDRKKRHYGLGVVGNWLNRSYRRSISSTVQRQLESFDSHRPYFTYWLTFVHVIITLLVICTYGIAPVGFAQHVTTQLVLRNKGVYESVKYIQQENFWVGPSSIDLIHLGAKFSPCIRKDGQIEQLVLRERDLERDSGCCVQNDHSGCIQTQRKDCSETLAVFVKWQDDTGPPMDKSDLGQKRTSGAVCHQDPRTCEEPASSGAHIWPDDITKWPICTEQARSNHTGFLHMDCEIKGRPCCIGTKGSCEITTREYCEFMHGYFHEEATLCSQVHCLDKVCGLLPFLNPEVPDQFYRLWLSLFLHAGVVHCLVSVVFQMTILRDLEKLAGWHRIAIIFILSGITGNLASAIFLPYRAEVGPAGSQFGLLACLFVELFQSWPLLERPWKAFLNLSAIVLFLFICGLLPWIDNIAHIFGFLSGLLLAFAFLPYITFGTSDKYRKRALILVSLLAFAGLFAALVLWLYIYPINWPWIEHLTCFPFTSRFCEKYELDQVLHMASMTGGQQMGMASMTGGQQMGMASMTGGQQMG

B1: antibody 48 (antibody, V domains shown)
VH: QVQLQQSGTELVRPGTSVKVSCKASGYAFTNYLIEWVKQRPGQGLEWIGVINPGSGFTKYNEKFKGKATLTADKSSSTVYMHLSSLTSEDSAVYFCARGLYRAMDYWGQGTSVTVSS
VL: DIQMTQSPASQSASLGESVTITCLASQTIATWLAWYQQKPGKSPQLLIYGATTLADGVPSRFSGGGSGTKFSFKISSLQAEDFVSYYCQQLYSTPYTFGGGTKLEIK
notes: mouse IgG, kappa light chain; also called clone #48; purified antibody 48
loss of binding vs wild type [1]: ≥ 30% | loss of binding vs wild type [2]: ≥ 30%

B2: antibody 50 (antibody, V domains shown)
VH: QVQLQQSGAELVRPGASVKVSCKASGYAFSNYLIEWVKQRPGQGLEWIGVINPGSGFTKYNEKFKGKATLTADKSSSTAYMQLSSLTSEDSAVYFCARGLYRAMDYWGQGTSVTVSS
VL: DIQMTQSPASQSASLGESVTITCLASQTIGTWLAWYQQKPGKSPQLLIYAAASLADGVPSRFSGGGSGTKFSFKISSLQAEDFVNYYCQQIYSTPYTFGGGTKLEIK
notes: mouse IgG, kappa light chain; also called clone #50; purified antibody 50
loss of binding vs wild type [1]: ≥ 30% | loss of binding vs wild type [2]: ≥ 30%
